Each block holds one binder with its values, some of them ahead of it.
Legend:
[1] = molecular target: T1, hSIRPα expressed on primary human cells (human, UniProt P78324 31-504); assay: flow cytometry on primary human granulocytes, FITC goat-anti-mouse Ig
T1 construct: whole, on cells; also called hSIRPα on primary human CD14+ monocytes; on primary human granulocytes
Description: To confirm the functionality of hSIRPα.50A in primary immune cells, granulocytes (e.g. effector cells) were isolated from healthy human donor EDTA blood. First, the EDTA blood of each donor was pooled and centrifuged at 300 g for 6 minutes at 20° C. Next, plasma was removed by aspiration, and the remaining blood cells were gently resuspended. Cells were recovered in red blood cell (RBC) lysis buffer (155 mM NH4Cl; 10 mM KHCO3) and incubated for 10 minutes on ice. Next, cells were centrifuged at 300 g for 7 minutes. Supernatants containing lysed RBCs were removed by aspiration, and the remaining blood cells were gently resuspended in RBC lysis buffer and kept on ice for 1 minute. […] The percentage of granulocytes present in the cell suspension was determined by flow cytometry on the FACSCanto II (BD Biosciences) based on high forward scatter (FSC) and side scatter (SSC). Binding of hSIRPα.50A to human granulocytes was assessed by incubating the cells for 30 minutes at 4° C. with hSIRPα.50A antibody (25 μg/mL and dilutions thereof) in PBS/1% BSA containing 10% autologous serum (PBS/1% BSA/10% serum). […] After this labeling procedure, cells were washed two times, resuspended in PBS/1% BSA/10% serum and analysed by flow cytometry on the FACSCanto II (BD Biosciences). Data were processed and analysed with FlowJo V10 software (FlowJo, LLC).

[2] = molecular target: T2, human SIRPα variant 1 (human, UniProt P78324 31-504); assay: CELISA, CHO-K1 transfectants, point mutant study
T2 construct: full length ORF on transfected CHO-K1 or HEK293 cells; entry includes the signal peptide; also called hSIRPαV1; SIRPαV1
Description: To pinpoint the amino acids for interaction of hSIRPα.50A with the IgV domain, several point mutants of hSIRPαV1 were generated based on single amino acid differences between hSIRPαV1/V2 and hSIRPβ1. […] Amino acids in the hSIRPα IgV domain that are altered in hSIRPβ1 were mutated by using the QuikChange II Site-Directed Mutagenesis Kit (Stratagene) and the full length hSIRPαV1 sequence (SEQ ID NO: 33) as donor cDNA. Binding of hSIRPα.50A to hSIRPαV1 point mutants was tested using CELISA. To this end, CHO-K1 cells were transiently transfected, using Lipofectamine 2000, with cDNA encoding the full length open reading frame of hSIRPαV1 and mutants thereof, and hSIRPβ1 subcloned into the pCI-neo vector. Transfected cells were seeded in culture medium (DMEM-F12 (Gibco) supplemented with 5% New Born Calf Serum (BioWest) and Pen/Strep (Gibco)) in 96-well flat-bottom tissue culture plates and incubated at 37° C., 5% CO₂ and 95% humidity for 24 hours. Subsequently, culture medium was removed and cells were incubated for 1 hour at 37° C., 5% CO₂ and 95% humidity with purified hSIRPα antibodies (used at 10 μg/mL and dilutions thereof). Next, cells were washed with PBS-T and incubated for 1 hour at 37° C., 5% CO₂ and 95% humidity with goat-anti-mouse IgG-HRP (Southern Biotech). […] Reactions were stopped with 0.5 M H₂SO₄ and absorbances were read at 450 and 610 nm. […]

[3] = molecular target: T1, hSIRPα expressed on primary human cells; assay: flow cytometry on CD14+ enriched monocytes, human donor 2; blocked ligand: DyLight 488-labeled recombinant hCD47/Fc
Description: To assess the blocking ability of hSIRPα.40A, CD14+ enriched monocytes cells were seeded in 96-well round bottomed tissue culture plates and incubated for 45 minutes with FcR Blocking Reagent (Miltenyi Biotec) and hSIRPα.40A antibody (20 μg/mL and dilutions thereof) in PBS/1% BSA at 4° C. […] After this labeling procedure, cells were washed two times, resuspended in PBS/1% BSA containing 0.1 μg/mL DAPI (BioLegend), and analysed by flow cytometry on the FACSVerse (BD Biosciences). Data were processed and analysed with FlowJo V10 software (FlowJo, LLC). […] IC50 values represent the concentration at which half of the inhibition is observed.

[4] = molecular target: T2, human SIRPα variant 1; assay: flow cytometry, CHO-K1.hSIRPαV1 stable cells
Description: Binding of the parental and humanized antibodies to hSIRPα was assessed by flow cytometry using the CHO-K1.hSIRPαV1 stable cell line. CHO-K1.hSIRPαV1 cells were seeded in 96-well round bottomed tissue culture plates and incubated for 40 minutes with the humanized hSIRPα.40A antibody variants (20 μg/mL and dilutions thereof) in PBS/1% BSA at 4° C. […] After this labeling procedure, cells were washed two times, resuspended in PBS/1% BSA, containing 0.1 μg/mL DAPI (BioLegend), and analysed by flow cytometry on the FACSVerse (BD Biosciences). Data were processed and analysed with FlowJo V10 software (FlowJo, LLC).

T2 sequence (P78324 31-504 limits assumed, change not shown): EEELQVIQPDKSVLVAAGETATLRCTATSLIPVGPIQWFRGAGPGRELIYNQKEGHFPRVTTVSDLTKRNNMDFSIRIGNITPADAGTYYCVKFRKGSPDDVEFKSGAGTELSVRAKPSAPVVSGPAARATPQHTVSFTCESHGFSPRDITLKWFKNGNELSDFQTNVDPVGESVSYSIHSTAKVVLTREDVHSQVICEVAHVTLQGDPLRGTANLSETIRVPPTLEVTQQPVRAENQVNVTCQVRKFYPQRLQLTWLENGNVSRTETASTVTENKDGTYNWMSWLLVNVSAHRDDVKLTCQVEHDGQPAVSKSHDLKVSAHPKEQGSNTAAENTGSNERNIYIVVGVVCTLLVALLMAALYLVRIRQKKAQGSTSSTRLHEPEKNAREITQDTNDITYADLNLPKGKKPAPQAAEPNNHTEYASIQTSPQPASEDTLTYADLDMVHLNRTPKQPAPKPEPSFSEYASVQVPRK
T1 sequence (P78324 31-504): as the sequence (P78324 31-504 limits assumed, change not shown) above

EC50 (read off the curve) [1]: ~3 nM
EC50 [2]: 0.535 nM
B1: hSIRPα.50A (antibody, V domains shown)
VH: QVQLQQSGPELVKPGASVRISCKASGFTFTNYYIHWVKQRPGQGLEWIGWIYPGNVNTKYNEKFKAKATLTADKSSTTAYMQLSSLASEDSAVYFCARPTIIATDFDVWGAGTTVTVSS
VL: DIVMTQSHKFMSTSVGDRVNITCKASQGVGTAVGWYQQKPGQSPRLLIYWASTRHTGVPDRFTGSGSGTDFSLAISNVQSEDLADYFCQQYSTYPFTFGGGTNLEIK
notes: light chain constant domain not tied; also called mouse hSIRPα.50A; hSIRPα.50A.mIgG1

IC50 (read off the curve) [3]: ~0.5 nM
EC50 [4]: 0.022 nM
B2: hSIRPα.40A (antibody, mouse IgG1, kappa, V domains shown)
VH: EVQFQQSGTVLARPGTSVKMSCKASGSTFTSYWMHWVKQGPGQGLQWIGAIYPVNNDTTYNQKFKGKAELTVVTSTSTAYMEVSSLTNEDSAVYYCTRSFYYSLDAAWFVYWGQGTLVTVSA
VL: DIQMTQSPSSLSASLGERVSLTCRASQDIGSRLNWLQQEPDGTIKRLIYATSSLDSGVPKRFSGSRSGSDYSLTISGLESEDFVDYYCLQYASSPFTFGGGTKLEINR
notes: mouse antibody, full chains without signal peptide; also called mouse hSIRPα.40A

Source: patent US20180312587A1 (ADURO BIOTECH HOLDINGS EUROPE B V, published 2018)
